Residue numbers refer to the chain shown, from its start.

These results are taken from patent US20190225705A1 (published 2019).

Experiment [1] deals with T1, human coagulation factor XI (UniProt P03951 19-625). Description: ELISA. In general terms: An ELISA detects its analyte on a solid surface through an enzyme-linked reagent.
For experiment [2], the target named is T1, human coagulation factor XI. Description: ELISA. This is another data set of the same source.
Experiment [3] has the same target. As to the kind of experiment: Conversion Assay.
Experiment [4] has the same target. As to the kind of experiment: FXIIa induced FXI conversion assay.
Experiment [5] has the same target. Description: ELISA. This is another data set of the same source.
The target of another experiment is baboon FXI (Papio anubis (baboon)). Description: ELISA.
Experiment [6] deals with T1, human coagulation factor XI. Description: ELISA. The source holds these as a separate data set.
The target is the same in experiment [7]. As to the kind of experiment: ELISA. This is another data set of the same source.
Experiment [8] has the same target. As to the kind of experiment: ELISA. The source holds these as a separate data set.

B1: humanized and germlined anti-FXI antibody TPP-3583 (antibody, V domains shown)
VH: EVTLRESGPALVKPTQTLTLTCTFSGFSLSTSGMGVGWIRQPPGKALEWLAHIDWDDDKYYSPSLKSRLTISKDTSKNQVVLTMTNMDPVDTATYYCARIRSSVYAHYYGMDYWGQGTTVTVSS
VL: DIVMTQSPDSLAVSLGERATISCKASQSVLYSGDNYLNWYQQKPGQPPKLLIYAASTLESGIPDRFSGSGSGTDFTLTISSLQAEDVAVYYCQQYNGDPWTFGGGTKVEIKR
What is called EC50 is the concentration giving half of the maximal effect. Low readings indicate higher potency in that assay, high ones lower potency in that assay. Usually IC50 stands for the point on the concentration scale where inhibition reaches its midpoint. B1: the EC50 in experiment [1] came out at 0.2 nM; in experiment [2], 0.219 nM; in experiment [3], 0.6 nM. The molecule further had an IC50 in experiment [4] of 0.598 nM.

B2: humanized and germlined anti-FXI antibody TPP-3238 (antibody, V domains shown)
VH: B1 VH with G37S, P63T, A106Y, H107Y, Y113V
VL: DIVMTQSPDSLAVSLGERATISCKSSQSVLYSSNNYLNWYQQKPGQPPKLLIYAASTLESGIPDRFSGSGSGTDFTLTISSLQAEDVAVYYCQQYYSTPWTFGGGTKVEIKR
Regarding B2, the figures for the concentration giving a half-maximal response (EC50) in experiment [1], in [5] and in [3] were 0.16 nM, 0.165 nM and 0.6 nM, respectively.

B3: TPP-3583 (antibody, V domains shown)
VH: B1 VH
VL: B1 VL
The molecule B3 registered an EC50 in the experiment with baboon FXI of 0.13 nM.

B4: TPP-3290 (antibody, V domains shown)
VH: B1 VH with G37S, P63T
VL: B1 VL with D98T
B4 showed an EC50 with baboon FXI of 0.14 nM.

B5: TPP-3238 (antibody, V domains shown)
VH: B1 VH with G37S, P63T, A106Y, H107Y, Y113V
VL: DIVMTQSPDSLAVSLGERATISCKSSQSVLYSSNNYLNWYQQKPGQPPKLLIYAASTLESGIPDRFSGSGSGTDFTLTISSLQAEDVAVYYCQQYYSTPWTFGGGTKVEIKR
For B5, a half-maximal response with baboon FXI (EC50) required 0.28 nM.

B6: TPP-3577 (antibody, V domains shown)
VH: B1 VH with G35C, P63T, Y113V
VL: B1 VL with A25S
B6 showed an EC50 with baboon FXI of 0.16 nM.

B7: humanized and germlined anti-FXI antibody TPP-3290 (antibody, V domains shown)
VH: B1 VH with G37S, P63T
VL: B1 VL with D98T
On to B7, for which the EC50 stood at 0.17 nM in experiment [1], 0.168 nM in experiment [6] and 0.4 nM in [3].

B8: humanized and germlined anti-FXI antibody TPP-3577 (antibody, V domains shown)
VH: B1 VH with G35C, P63T, Y113V
VL: B1 VL with A25S
As to B8, the results for the EC50 in [1], in experiment [7] and in experiment [3] were 0.19 nM, 0.119 nM and 0.4 nM, respectively.

B9: 1A6 (antibody, V domains shown)
VH: QVTLKESGPGILKPSQTLSLTCSFSGFSLSTSGMGVGWIRQPSGKGLEWLAHIWWDDDKYYNPSLKSQLTISKDTSRNQVFLKITSVDAADTATYYCARKRSSVVAHYYAMDYWGQGTSVTVSS
VL: DIVLTQSPASLAVSLGQRATISCKASQSVDYDGDSYLNWYQQKPGQPPKLLIYAASNLESGIPARFSGSGSGTDFTLNIHPVEEEDAATYYCQQSNGDPWTFGGGTKLEIK
For the molecule B9, the EC50 with baboon FXI came out at 0.16 nM. That is a sub-nanomolar value.

B10: murine anti-FXI antibody 1A6 (antibody, V domains shown)
VH: B9 VH
VL: B9 VL
Turning to B10, the EC50 in [1] was 0.15 nM; in experiment [8], 0.154 nM; in experiment [3], 0.5 nM.
